For assay [1], the target named is HRASG12V expressed in NIH3T3 cells from pZIPneoSV(X)-HRASG12V (UniProt P01112 1-186, limits assumed). The experiment in a line: cell-based or functional assay.
Assay [2] has as its target T1, Recombinant activated HRAS (G12V; residues 1-166), GppNp-bound (human, UniProt P01112 1-166, loaded with 5'-guanylylimidodiphosphate (GppNp), a non-covalent nucleotide).
T1 construct: range 1-166; Antigen of the ELISA and BIAcore assays; also called HRASG12V-GppNp; RASG12V-GppNp
The experiment in a line: SPR (BIAcore 2000), Example 12. Background: In SPR one partner is held on a chip, and binding of the other changes the refractive index at the surface.

Assay [3] concerns the target T2, Gal4 DBD fused to HRASG12V (codons 1-166) (mammalian bait from pM1-HRASG12V) (UniProt P04386 1-147; P01112 1-166).
T2 construct: domain: Gal4 DBD;range 1-166; Expressed inside COS7 or CHO cells; also called pM1-RASG12V; pM-RASG12V
The experiment in a line: COS7 luciferase reporter with HRAS, KRAS or NRAS (data not shown). For orientation: A reporter such as luciferase makes a cellular process visible.

In assay [4] the target is T1, Recombinant activated HRAS (G12V; …). The experiment in a line: SPR (BIAcore 2000), purified His-tagged fragment on RAS antigen.
Assay [5] deals with T3, LexA DBD (made from the empty pBTM116 vector) (UniProt P0A7C2 1-202).
T3 construct: domain: LexA DBD; Yeast bait control
T3 sequence (looked up): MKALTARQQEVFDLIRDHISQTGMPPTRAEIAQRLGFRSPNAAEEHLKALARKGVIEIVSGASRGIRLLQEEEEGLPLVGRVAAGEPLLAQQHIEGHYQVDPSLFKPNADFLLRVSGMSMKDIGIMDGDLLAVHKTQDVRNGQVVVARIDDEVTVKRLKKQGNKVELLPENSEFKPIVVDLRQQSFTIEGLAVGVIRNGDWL
The experiment in a line: yeast two-hybrid, scFv-VP16 prey (data not shown).

For assay [6], the target named is β-galactosidase (non-relevant antigen bait in yeast) (UniProt P00722 1-1024 = β-galactosidase, limits assumed). The experiment in a line: yeast two-hybrid, scFv-VP16 prey (data not shown).
Assay [7] has as its target T1, Recombinant activated HRAS (G12V; …). The experiment in a line: SPR (BIAcore 2000), HRASG12V-GppNp immobilised (about 1500 RU), purified scFv as analyte, Example 4.
Assay [8] has the same target. The experiment in a line: SPR, BIAcore 2000; HRASG12V-GppNp immobilised, purified scFv injected; BIAevaluation 2.1.
Another assay concerns the target T4, BSA (bovine, UniProt P02769).
T4 construct: coated on the ELISA plate at 30 mg/ml as control antigen; also called bovine serum albumin
The experiment in a line: ELISA; BSA coated at 30 mg/ml, purified His-tagged scFv, detection with HRP anti-polyhistidine, absorption 450-650 nm. In general terms: In an ELISA, binding on a coated surface is turned into a signal by an enzyme label.

The target in assay [9] is T2, Gal4 DBD fused to HRASG12V (codons …). The experiment in a line: cell-based or functional assay.
Assay [10] has as its target T1, Recombinant activated HRAS (G12V; …). The experiment in a line: SPR (BIAcore 2000), HRASG12V-GppNp immobilised (about 1500 RU), purified scFv as analyte, Example 4; Example 4, BIAcore, FIG. 6B.

In general, Kd refers to the equilibrium constant for the complex coming apart. As usually defined, the koff is the rate constant with which the complex falls apart. A word on the kon: it is the second-order rate constant of association.

B1: IDab anti-RAS #6 (other)
VH: EVQLLESGGGLVQPGGSLRLSCAASGFSFSTFSMNWVRQAPGKGLEWVSYISRTSKTIYYADSVKGRFTISRDNSKNTLYLQMNSLRAEDTAVYYCARGRFFDYWGQGTLVTVSS
Regarding B1, in assay [1], the “transforming activity in NIH3T3 cells, relative to HRASG12V alone” value is less than 10%.

B2: IDab anti-RAS #12 (other)
VH: EVQLLESGGGLVQPGGSLRLSCAASGFSFSVWAMSWVRQAPGKGLEWVSYISRTSKTIYYADSVKGRFTISRDNSKNTLYLQMNSLRAEDTAVYYCARGRFFDYWGQGTLVTVSS
Regarding B2, the Kd in assay [2] is approximately 26 nM. The binding result in [3] is “binds”.

B3: IDab 33 (single VH domain of anti-RAS scFv33) (other)
VH: QVQLVEAGGGLVQPGGSLRLSCAASGFSFSTFSMNWVRQAPGKGLEWVSYISSSGRTIYYADSVKGRFTISRDNAKNSLYLQMNSLRDEDTAVYYCARGRFFDYWGQGTLVTVSS
notes: also called 33VH; VH from intrabody anti-RAS scFv33
For the molecule B3, the Kd in assay [2] was approximately 90 nM. For the same molecule, in assay [4], the off-rate constant (koff) is 0.0144 s⁻¹ and the on-rate constant (kon) was 12500 M⁻¹ s⁻¹.

B4: anti-RAS scFv I21 (scFv)
scFv: EVQLLESGGGLVQPGGSLRLSCAASGFTFSSYAMSWVRQAPGKGLEWVSTISYGGSNTNYADSVKARFTISRDNSKNTLYLQMNSLRAEDTAVYYCAKGNNAFDYWGQGTLVTVSSGGGGSGGGGSGGGGSTDIQMTQSPSSLSASVGDRVTITCRASQSISSYLNWYQQKPGKAPKLLIYNASALQSGVPSRFSGSGSGTDFTLTISSLQPEDFATYYCQQYTSTPRTFGQGTKVEIKR
notes: also called ICAb I21
On to B4, for which the binding result in assay [5] is “no binding”; in assay [6] it was “no binding”; with BSA, “no binding (tested: 450 ng per well (legend))”. Further, the Kd is 2160 nM in [7] and 1310 nM in assay [8]. Also, the off-rate (koff) in [8] was found to be 0.0212 s⁻¹. Also, the kon in assay [8] was found to be 16700 M⁻¹ s⁻¹.

B5: IDab anti-RAS #3 (other)
VH: QVQLVESGGGLVQPGGSLRLSCAASGFTFSSYAMHWVRQAPGKGLEWVSVISKLTHHTYYADSVKGRFTISRDNSKNTLYLQMNSLRAEDTAVYYCARGVQGYVHGLKGNWFDYWGQGTLVTVSS
notes: also called anti-RAS clone #3; clone 3
Consider B5, for which the Kd in assay [2] was approximately 180 nM. Besides, in [4], the koff amounted to 0.00104 s⁻¹ and the kon is 5660 M⁻¹ s⁻¹.

B6: anti-RAS scFv33 (scFv)
scFv: QVQLVEAGGGLVQPGGSLRLSCAASGFSFSTFSMNWVRQAPGKGLEWVSYISSSGRTIYYADSVKGRFTISRDNAKNSLYLQMNSLRDEDTAVYYCARGRFFDYWGQGTLVTVSSGGGGSGGGGSGGGGSDIVMTQSPSFLSASVGDRVTITCRASQSISRYLNWYQQKPGKAPKLLIYAASSLQSGVPSRFSGSGSGTDFTLTISSLQPEDFAIYYCQQSYSTLLTFGGGTKLEIKR
notes: ELISA and BIAcore: purified from periplasm with C-terminal His6-tag and myc-tag; Two-hybrid: fused to VP16 AD; Co-location: with nls and myc-tag; also called ICAb 33
For the molecule B6, the “luciferase reporter activation in COS7 cells” value in assay [9] is more than 10 fold. The Kd in assay [2] is approximately 10 nM; in assay [8], 9.97 nM; in assay [10], 1.39 nM. Also, the binding result in [5] is reported as “no binding”; in assay [6] it was “no binding”; with BSA, “no binding (tested: 450 ng per well (legend))”. Also, the koff in assay [4] and in [8] was 0.00113 s⁻¹ each time. Besides, the kon in [4] and in assay [8] was 176000 M⁻¹ s⁻¹ throughout.

B7: anti-RAS scFv J48 (scFv)
scFv: QVQLVEAGGGLVQPGGSLRLSCAASGFSFSYLYMNWVRQAPGKGLEWVSYISSSGRTIYYADSVKGRFTISRDNAKNSLYLQMNSLRDEDTAVYYCARGRFFDYWGQGTLVTVSSGGGGSGGGGSGGGGSDIVMTQSPSFLSASVGDRVTITCRASQSISRYLNWYQQKPGKAPKLLIYAASSLQSGVPSRFSGSGSGTDFTLTISSLQPEDFAIYYCQQSYSTLLTFGGGTKLEIKR
notes: Same formats as scFv33 (His6/myc purified; VP16 fusion; nls-myc)
Consider B7, for which, in assay [9], the “luciferase reporter activation in COS7 cells” value is more than 10 fold. The binding result is reported as “no binding” in assay [5], “no binding” in assay [6] and “no binding (tested: 450 ng per well (legend))” with BSA. In addition, the Kd was found to be 2.6 nM in assay [8] and 3.63 nM in assay [10]. Besides, the koff in assay [8] is 0.00482 s⁻¹. Besides, in assay [8], the kon was 1.87e+06 M⁻¹ s⁻¹.

For the origin of these results see US20050288492A1 (MEDICAL RESEARCH COUNCIL, published 2005).
